Data set [1] relates to PC-3 xenografts. Briefly: in vivo. The settings on record: mouse; for Blood uptake / Kidney uptake / Liver uptake / Small int. uptake / Stomach uptake / Tumor uptake / Lung uptake / Pancreas uptake / GI tract uptake / Bone uptake / Spleen uptake: female, BALB/c nu/nu; for GI tract uptake: iv, 45 pmol/mouse. Also on record: species or system BALB/c nu/nu mice. The procedure: (§1) For biodistribution studies, 16 female BALB/c nu/nu mice (age 15–16 weeks) bearing PC-3 xenografts (inoculated subcutaneously with 8 × 10^6 PC-3 cells three weeks before the experiment) were randomized into groups of four. The mice were intravenously injected into the tail vein with a mixture of [^64Cu]Cu-X-RM26 and [^57Co]Co-X-RM26 and were euthanized at 3 and 24 h p.i. Injected activity was adjusted to 300 kBq/mouse for ^64Cu- and 40 kBq/mouse for ^57Co-labeled conjugates. The total injected peptide mass was adjusted to 45 pmol/mouse (in 100 μL). Blood, kidney, pancreas, liver, lung, bone, muscle, tumor, spleen, stomach, small intestines, and the rest of the GI tract with content were collected, weighed, and their activity content was measured in a gamma-counter. The ^64Cu activities were determined from measurements performed on the day of the experiment, while the ^57Co activities were measured after two weeks to allow the ^64Cu to decay. Tissue uptake of the radiopeptides was calculated as a percent of injected dose per gram tissue (%ID/g), with exception of the GI tract for which tissue uptake was calculated as %ID per whole sample.

Data set [2] in a line: in vivo. Also on record: species or system BALB/c nu/nu mice. The settings on record: female, BALB/c nu/nu, mouse, total radioactivity. The procedure: as §1

Molecules are shown by their SMILES.

As to `CC(C)C[C@H](NC(=O)C[C@H](O)[C@H](CC(C)C)NC(=O)[C@H](Cc1c[nH]cn1)NC(=O)CNC(=O)[C@@H](NC(=O)[C@H](C)NC(=O)[C@H](Cc1c[nH]c2ccccc12)NC(=O)[C@H](CCC(N)=O)NC(=O)[C@@H](Cc1ccccc1)NC(=O)COCCOCCNC(=O)CN1CCN(CC(=O)O)CCN(CC(=O)O)CC1)C(C)C)C(N)=O` [[^57Co]Co-NOTA-PEG2-RM26], in data set [1] (3 h), the Blood uptake is recorded as 0.02 %ID/g, the Kidney uptake worked out at 0.51 %ID/g, the Liver uptake stood at 0.06 %ID/g and the Small int. uptake amounted to 0.34 %ID/g. In data set [1] (3 h), this compound came in with a Stomach uptake of 0.59 %ID/g, a Tumor uptake of 3.27 %ID/g and a GI tract uptake of 0.26 %ID. Also, in data set [1] (24 h), the Lung uptake stood at 0.02 %ID/g, the Pancreas uptake came out at 0.02 %ID/g and the GI tract uptake was found to be 0.02 %ID. In addition, the tissue uptake at 3 h in data set [2] (Bone uptake) stood at 0.11 %ID/g. In addition, the tissue uptake at 24 h in data set [2] (Muscle uptake) came out at 0.01 %ID/g. In data set [2] (Spleen uptake), the tissue uptake at 24 h is 0.04 %ID/g. The tissue uptake at 24 h in data set [2] (Tumor uptake) was 0.31 %ID/g.
For the compound `CC(C)C[C@H](NC(=O)C[C@H](O)[C@H](CC(C)C)NC(=O)[C@H](Cc1c[nH]cn1)NC(=O)CNC(=O)[C@@H](NC(=O)[C@H](C)NC(=O)[C@H](Cc1c[nH]c2ccccc12)NC(=O)[C@H](CCC(N)=O)NC(=O)[C@@H](Cc1ccccc1)NC(=O)COCCOCCNC(=O)CCC(C(=O)O)N1CCN(CC(=O)O)CCN(CC(=O)O)CC1)C(C)C)C(N)=O` (stereo partly drawn) [[^64Cu]Cu-NODAGA-PEG2-RM26, metal not drawn], in data set [1] (3 h), the Bone uptake is 0.08 %ID/g, the Kidney uptake came to 0.90 %ID/g, the Liver uptake stood at 0.28 %ID/g and the Lung uptake was 0.12 %ID/g. In data set [1] (3 h), this compound returned a Pancreas uptake of 0.27 %ID/g, a Small int. uptake of 0.24 %ID/g, a Spleen uptake of 0.05 %ID/g and a Stomach uptake of 0.27 %ID/g. In data set [1] (3 h), this compound returned a Tumor uptake of 2.31 %ID/g and a GI tract uptake of 1.02 %ID. Besides, in data set [1] (24 h), the Blood uptake is given as 0.02 %ID/g, the Bone uptake is 0.13 %ID/g, the Kidney uptake is reported as 0.12 %ID/g and the Liver uptake is listed as 0.16 %ID/g. In data set [1] (24 h), the Lung uptake was found to be 0.04 %ID/g, the Pancreas uptake was 0.04 %ID/g, the Small int. uptake worked out at 0.05 %ID/g and the Spleen uptake is reported as 0.02 %ID/g. Moreover, in data set [1] (24 h), the Stomach uptake is 0.08 %ID/g, the Tumor uptake is reported as 0.16 %ID/g, the GI tract uptake is listed as 0.03 %ID and the Muscle uptake came to 0.00 %ID/g.
For `CC(C)C[C@H](NC(=O)C[C@H](O)[C@H](CC(C)C)NC(=O)[C@H](Cc1c[nH]cn1)NC(=O)CNC(=O)[C@@H](NC(=O)[C@H](C)NC(=O)[C@H](Cc1c[nH]c2ccccc12)NC(=O)[C@H](CCC(N)=O)NC(=O)[C@@H](Cc1ccccc1)NC(=O)COCCOCCNC(=O)CN1CCN(CC(=O)O)CCN(CC(=O)O)CC1)C(C)C)C(N)=O` [[^64Cu]Cu-NOTA-PEG2-RM26, metal not drawn], the results for the Blood uptake in data set [1] (3 h) and in data set [1] (24 h) were 0.06 %ID/g and 0.04 %ID/g, respectively. Further, the Liver uptake in data set [1] (3 h) came to 0.59 %ID/g; in data set [1] (24 h), 0.49 %ID/g. This compound returned a Pancreas uptake in data set [1] (3 h) of 1.31 %ID/g. This compound returned a Small int. uptake in data set [1] (3 h) of 0.72 %ID/g. The compound further showed a Stomach uptake in data set [1] (3 h) of 1.19 %ID/g. Further, in data set [1] (24 h), the Tumor uptake is reported as 0.42 %ID/g. Moreover, the GI tract uptake in data set [1] (3 h) stood at 0.76 %ID; in data set [1] (24 h), 0.07 %ID. Further, the tissue uptake at 24 h in data set [2] (Bone uptake) came to 0.15 %ID/g; in data set [2] (Kidney uptake), 0.25 %ID/g; in data set [2] (Small int. uptake) it was 0.12 %ID/g; in data set [2] (Stomach uptake) it was 0.14 %ID/g. Moreover, the tissue uptake at 3 h in data set [2] (Kidney uptake) was found to be 0.46 %ID/g; in data set [2] (Muscle uptake), 0.02 %ID/g; in data set [2] (Spleen uptake), 0.1 %ID/g; in data set [2] (Tumor uptake), 3.94 %ID/g.

These data come from article PMC7766840, “Preclinical Evaluation of the Copper-64 Labeled GRPR-Antagonist RM26 in Comparison with the Cobalt-55 Labeled Counterpart for PET-Imaging of Prostate Cancer” (Molecules, 2020).
